In paper PMC3121171 (Forum on immunopathological diseases and therapeutics, 2011):

Target: T1, Purified recombinant human GRK2 (G protein-coupled receptor kinase 2) (human, UniProt P25098 1-689)
T1 sequence (looked up): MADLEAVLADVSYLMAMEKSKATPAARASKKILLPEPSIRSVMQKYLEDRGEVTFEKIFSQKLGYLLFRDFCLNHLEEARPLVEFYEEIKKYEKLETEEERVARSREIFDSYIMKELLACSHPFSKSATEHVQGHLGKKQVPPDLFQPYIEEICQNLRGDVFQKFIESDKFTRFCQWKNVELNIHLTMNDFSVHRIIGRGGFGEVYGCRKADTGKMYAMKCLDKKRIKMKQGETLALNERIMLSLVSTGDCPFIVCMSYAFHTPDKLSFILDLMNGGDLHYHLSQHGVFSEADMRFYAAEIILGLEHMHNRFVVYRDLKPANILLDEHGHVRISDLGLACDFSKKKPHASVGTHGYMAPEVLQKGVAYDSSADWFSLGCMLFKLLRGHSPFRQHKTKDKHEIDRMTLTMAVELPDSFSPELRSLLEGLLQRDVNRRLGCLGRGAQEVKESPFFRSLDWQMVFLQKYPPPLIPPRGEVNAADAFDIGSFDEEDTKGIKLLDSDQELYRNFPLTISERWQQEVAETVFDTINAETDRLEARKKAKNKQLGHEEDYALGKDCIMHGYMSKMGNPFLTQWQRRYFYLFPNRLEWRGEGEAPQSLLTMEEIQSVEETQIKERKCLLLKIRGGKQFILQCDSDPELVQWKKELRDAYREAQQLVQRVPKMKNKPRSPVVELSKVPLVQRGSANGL
Assay: pull-down

binding result: binds
B1: His-tagged human RKIP-1/PEBP-1 (Raf kinase inhibitor protein) (natural protein)
chain: MPVDLSKWSGPLSLQEVDEQPQHPLHVTYAGAAVDELGKVLTPTQVKNRPTSISWDGLDSGKLYTLVLTDPDAPSRKDPKYREWHHFLVVNMKGNDISSGTVLSDYVGSGPPKGTGLHRYVWLVYEQDRPLKCDEPILSNRSGDHRGKFKVASFRKKYELRAPVAGTCYQAEWDDYVPKLYEQLSGK
